Expression rate (% of cells positive for ALK 001P staining) data for one molecule are collected here from patent publication US20220249561A1.

For the experiment, the target named is ALK 001P. Description: flow cytometry; CAR-T cells incubated with ALK 001P, detected with PE anti-His tag antibody and APC anti-CD3. Background: In flow cytometry, cells or beads pass a laser one at a time.
Chain of ALK 001P (chain, as listed by the source limits assumed): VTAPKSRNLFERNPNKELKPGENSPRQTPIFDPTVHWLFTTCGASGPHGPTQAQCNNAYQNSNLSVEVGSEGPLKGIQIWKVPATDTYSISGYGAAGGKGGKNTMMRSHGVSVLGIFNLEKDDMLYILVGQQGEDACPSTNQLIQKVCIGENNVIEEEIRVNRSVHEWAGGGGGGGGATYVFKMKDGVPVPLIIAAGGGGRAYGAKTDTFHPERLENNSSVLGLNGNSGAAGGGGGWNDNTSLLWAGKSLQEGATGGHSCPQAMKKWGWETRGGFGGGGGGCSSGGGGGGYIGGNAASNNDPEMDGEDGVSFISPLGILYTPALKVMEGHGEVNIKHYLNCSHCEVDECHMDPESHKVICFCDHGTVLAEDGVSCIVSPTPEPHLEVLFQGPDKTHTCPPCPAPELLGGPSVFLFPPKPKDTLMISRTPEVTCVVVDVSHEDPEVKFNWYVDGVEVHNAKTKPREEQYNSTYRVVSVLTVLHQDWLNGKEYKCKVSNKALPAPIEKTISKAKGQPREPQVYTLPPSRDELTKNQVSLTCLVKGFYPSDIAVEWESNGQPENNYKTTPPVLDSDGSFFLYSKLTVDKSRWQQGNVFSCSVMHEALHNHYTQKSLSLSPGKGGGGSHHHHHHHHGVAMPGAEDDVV

B1: CAR 021 (FAM150BTr-28z dCH2CH3) (protein)
chain: AEAAGLGPSPEQRVEIVPRDLRMKDKFLKHLTGPLYFSPKCSKHFHRLYHNTRDCTIPAYYKRCARLLTRLAVSPVCMEDKQEPKSCDKTHTCPPCDPAEPKSPDKTHTCPFWVLVVVGGVLACYSLLVTVAFIIFWVRSKRSRLLHSDYMNMTPRRPGPTRKHYQPYAPPRDFAAYRSRVKFSRSADAPAYQQGQNQLYNELNLGRREEYDVLDKRRGRDPEMGGKPRRKNPQEGLYNELQKDKMAEAYSEIGMKGERRRGKGHDGLYQGLSTATKDTYDALHMQALPPR
B1 returned an Expression rate (% of cells positive for ALK 001P staining) of 24.1%.
